From patent US20110318339A1 come the findings set out here.

In assay [1] the target is recombinant mouse DLL4 (Cat# 1389-D4-050/CF, R&D Systems) (mouse) (UniProt Q9JI71). In words: ELISA, mDLL4 coated 0.5 ng/ul, Fab 6.25 nM. On the technique in general: An ELISA detects its analyte on a solid surface through an enzyme-linked reagent.
Assay [2] shares this target. In words: ELISA, mDLL4 coated 0.5 ng/ul, Fab 12.50 nM.
The target is the same in assay [3]. Put plainly: ELISA, mDLL4 coated 0.5 ng/ul, Fab 25.00 nM.
The target is the same in assay [4]. Put plainly: ELISA, mDLL4 coated 0.5 ng/ul, Fab 50.00 nM.
The target is the same in assay [5]. Put plainly: ELISA, mDLL4 coated 0.5 ng/ul, Fab […].
Assay [6] shares this target. In words: ELISA, mDLL4 coated 0.5 ng/ul, Fab 100.00 nM.
The target is the same in assay [7]. In words: ELISA, mDLL4 coated 0.5 ng/ul, Fab 0.78 nM.
The target in assay [8] is recombinant human DLL4 (Cat# 1506-D4/CF, R&D Systems) (human) (UniProt Q9NR61). In words: ELISA, DLL4 coated, Fab 12.5 nM.
Assay [9] has the same target. In words: ELISA, DLL4 coated, Fab 25 nM.
The target is the same in assay [10]. Put plainly: ELISA, DLL4 coated, Fab 50 nM.
The target is the same in assay [11]. Put plainly: ELISA, DLL4 coated, Fab 100 nM.
For assay [12] the target is unchanged. In words: ELISA, DLL4 coated, Fab […].
For assay [13] the target is unchanged. Put plainly: ELISA, DLL4 coated, Fab 20 nM.
The target is the same in assay [14]. Put plainly: ELISA, DLL4 coated, Fab 0.74 nM.
Assay [15] has the same target. In words: ELISA, DLL4 coated, Fab 2.22 nM.

recombinant mouse DLL4 (Cat# 1389-D4-050/CF, R&D Systems) (mouse), sequence (Q9JI71 28-525 limits assumed): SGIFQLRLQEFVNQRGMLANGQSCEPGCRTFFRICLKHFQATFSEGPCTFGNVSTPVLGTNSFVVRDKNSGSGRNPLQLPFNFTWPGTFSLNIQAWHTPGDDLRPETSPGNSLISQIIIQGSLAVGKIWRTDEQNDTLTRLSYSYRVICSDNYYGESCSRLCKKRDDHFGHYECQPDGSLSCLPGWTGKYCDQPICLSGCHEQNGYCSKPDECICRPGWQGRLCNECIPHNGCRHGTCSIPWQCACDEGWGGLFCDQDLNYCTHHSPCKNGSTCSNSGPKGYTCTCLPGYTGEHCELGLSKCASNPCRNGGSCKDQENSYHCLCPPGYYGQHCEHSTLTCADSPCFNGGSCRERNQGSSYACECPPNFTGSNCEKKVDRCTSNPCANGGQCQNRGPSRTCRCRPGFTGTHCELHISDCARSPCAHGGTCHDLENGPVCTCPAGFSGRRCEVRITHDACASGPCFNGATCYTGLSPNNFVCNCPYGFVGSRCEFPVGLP

B1: Fab VH5-51_IGHD5-18*01>3_IGHJ4*01 G100K/G104T G24T/S28R/G35V (H:KT TRV) & V3-4_IGLJ1*01 M94R/S96M (L:RM) (Fab, V domains shown)
VH: EVQLVQSGAEVKKPGESLKISCKTSGYRFTSYWIVWVRQMPGKGLEWMGIIYPGDSDTRYSPSFQGQVTISADKSISTAYLQWSSLKASDTAMYYCARRKYSYTYDYFDYWGQGTLVTVSS
VL: QTVVTQEPSFSVSPGGTVTLTCGLSSGSVSTSYYPSWYQQTPGQAPRTLIYSTNTRSSGVPDRFSGSILGNKAALTITGAQADDESDYYCVLYRGMGISYVFGTGTKVTVL
With B1, the ELISA absorbance at 450 nm came out at 0.148 A450 in assay [1]; 0.186 A450 in [2]; 0.232 A450 in assay [3]; 0.331 A450 in [4]; 0.131 A450 in assay [5]; 0.457 A450 in [6]. For the same molecule, the ELISA absorbance at 450 nm in assay [7] was determined as 0.13 A450.

B2: Fab VH5-51_IGHD5-18*01>3_IGHJ4*01 G100K/G104T G24T/S28R/G35V Y107F & V3-4_IGLJ1*01 (Fab, V domains shown)
VH: EVQLVQSGAEVKKPGESLKISCKTSGYRFTSYWIVWVRQMPGKGLEWMGIIYPGDSDTRYSPSFQGQVTISADKSISTAYLQWSSLKASDTAMYYCARRKYSYTYDFFDYWGQGTLVTVSS
VL: QTVVTQEPSFSVSPGGTVTLTCGLSSGSVSTSYYPSWYQQTPGQAPRTLIYSTNTRSSGVPDRFSGSILGNKAALTITGAQADDESDYYCVLYMGSGISYVFGTGTKVTVL
As for B2, the ELISA absorbance at 450 nm in assay [8] amounted to 0.21 A450; in assay [9] it was 0.2 A450; in [10] it was 0.24 A450; in assay [11], 0.28 A450.

B3: Fab VH5-51_IGHD5-18*01>3_IGHJ4*01 G100K/G104T G24A/S28R/G35V & V3-4_IGLJ1*01 M94R/S96M (Fab, V domains shown)
VH: EVQLVQSGAEVKKPGESLKISCKASGYRFTSYWIVWVRQMPGKGLEWMGIIYPGDSDTRYSPSFQGQVTISADKSISTAYLQWSSLKASDTAMYYCARRKYSYTYDYFDYWGQGTLVTVSS
VL: QTVVTQEPSFSVSPGGTVTLTCGLSSGSVSTSYYPSWYQQTPGQAPRTLIYSTNTRSSGVPDRFSGSILGNKAALTITGAQADDESDYYCVLYRGMGISYVFGTGTKVTVL
Turning to B3, the ELISA absorbance at 450 nm in assay [12] is 0.034 A450; in [13], 0.006 A450; in assay [14], 0 A450; in assay [15] it was 0 A450.

B4: Fab VH5-51_IGHD5-18*01>3_IGHJ4*01 G100K/G104T G24L/S28R/G35V & V3-4_IGLJ1*01 M94R/S96M (Fab, V domains shown)
VH: EVQLVQSGAEVKKPGESLKISCKLSGYRFTSYWIVWVRQMPGKGLEWMGIIYPGDSDTRYSPSFQGQVTISADKSISTAYLQWSSLKASDTAMYYCARRKYSYTYDYFDYWGQGTLVTVSS
VL: QTVVTQEPSFSVSPGGTVTLTCGLSSGSVSTSYYPSWYQQTPGQAPRTLIYSTNTRSSGVPDRFSGSILGNKAALTITGAQADDESDYYCVLYRGMGISYVFGTGTKVTVL
Consider B4, for which the ELISA absorbance at 450 nm was found to be 0 A450 in assay [12], 0.003 A450 in assay [13], 0 A450 in assay [14] and 0 A450 in [15].

B5: Fab VH5-51_IGHD5-18*01>3_IGHJ4*01 G100K/G104T G24T/S28R/G35V Y105N & V3-4_IGLJ1*01 (Fab, V domains shown)
VH: EVQLVQSGAEVKKPGESLKISCKTSGYRFTSYWIVWVRQMPGKGLEWMGIIYPGDSDTRYSPSFQGQVTISADKSISTAYLQWSSLKASDTAMYYCARRKYSYTNDYFDYWGQGTLVTVSS
VL: QTVVTQEPSFSVSPGGTVTLTCGLSSGSVSTSYYPSWYQQTPGQAPRTLIYSTNTRSSGVPDRFSGSILGNKAALTITGAQADDESDYYCVLYMGSGISYVFGTGTKVTVL
On to B5, for which the ELISA absorbance at 450 nm in assay [8] is 0.21 A450; in assay [9] it was 0.19 A450; in [10], 0.18 A450; in [11] it was 0.25 A450.

B6: Fab VH5-51_IGHD5-18*01>3_IGHJ4*01 G100K/G104T G24T/S28R/G35V Y105H & V3-4_IGLJ1*01 (Fab, V domains shown)
VH: EVQLVQSGAEVKKPGESLKISCKTSGYRFTSYWIVWVRQMPGKGLEWMGIIYPGDSDTRYSPSFQGQVTISADKSISTAYLQWSSLKASDTAMYYCARRKYSYTHDYFDYWGQGTLVTVSS
VL: QTVVTQEPSFSVSPGGTVTLTCGLSSGSVSTSYYPSWYQQTPGQAPRTLIYSTNTRSSGVPDRFSGSILGNKAALTITGAQADDESDYYCVLYMGSGISYVFGTGTKVTVL
For B6, the ELISA absorbance at 450 nm worked out at 0.21 A450 in assay [8], 0.19 A450 in assay [9], 0.2 A450 in [10] and 0.23 A450 in assay [11].

B7: Fab VH5-51_IGHD5-18*01>3_IGHJ4*01 G100K/G104T G24T/S28R/G35V D109Q & V3-4_IGLJ1*01 (Fab, V domains shown)
VH: EVQLVQSGAEVKKPGESLKISCKTSGYRFTSYWIVWVRQMPGKGLEWMGIIYPGDSDTRYSPSFQGQVTISADKSISTAYLQWSSLKASDTAMYYCARRKYSYTYDYFQYWGQGTLVTVSS
VL: QTVVTQEPSFSVSPGGTVTLTCGLSSGSVSTSYYPSWYQQTPGQAPRTLIYSTNTRSSGVPDRFSGSILGNKAALTITGAQADDESDYYCVLYMGSGISYVFGTGTKVTVL
Consider B7, for which the ELISA absorbance at 450 nm in assay [8] amounted to 0.24 A450; in assay [9], 0.22 A450; in assay [10], 0.25 A450; in assay [11] it was 0.3 A450.

B8: Fab VH5-51_IGHD5-18*01>3_IGHJ4*01 G100K/G104T S28R & V3-4_IGLJ1*01 M94R/S96M (Fab, V domains shown)
VH: EVQLVQSGAEVKKPGESLKISCKGSGYRFTSYWIGWVRQMPGKGLEWMGIIYPGDSDTRYSPSFQGQVTISADKSISTAYLQWSSLKASDTAMYYCARRKYSYTYDYFDYWGQGTLVTVSS
VL: QTVVTQEPSFSVSPGGTVTLTCGLSSGSVSTSYYPSWYQQTPGQAPRTLIYSTNTRSSGVPDRFSGSILGNKAALTITGAQADDESDYYCVLYRGMGISYVFGTGTKVTVL
On to B8, for which the ELISA absorbance at 450 nm in assay [12] came out at 0.001 A450; in assay [13], 0.011 A450; in [14], 0 A450; in [15], 0.003 A450.

B9: Fab VH5-51_IGHD5-18*01>3_IGHJ4*01 G104T & V3-4_IGLJ1*01 (Fab, V domains shown)
VH: EVQLVQSGAEVKKPGESLKISCKGSGYSFTSYWIGWVRQMPGKGLEWMGIIYPGDSDTRYSPSFQGQVTISADKSISTAYLQWSSLKASDTAMYYCARRGYSYTYDYFDYWGQGTLVTVSS
VL: QTVVTQEPSFSVSPGGTVTLTCGLSSGSVSTSYYPSWYQQTPGQAPRTLIYSTNTRSSGVPDRFSGSILGNKAALTITGAQADDESDYYCVLYMGSGISYVFGTGTKVTVL
B9: the ELISA absorbance at 450 nm in assay [8] was 0.19 A450; in [9] it was 0.18 A450; in [10] it was 0.17 A450; in [11], 0.17 A450.

B10: Fab VH5-51_IGHD5-18*01>3_IGHJ4*01 G100K & V3-4_IGLJ1*01 (Fab, V domains shown)
VH: EVQLVQSGAEVKKPGESLKISCKGSGYSFTSYWIGWVRQMPGKGLEWMGIIYPGDSDTRYSPSFQGQVTISADKSISTAYLQWSSLKASDTAMYYCARRKYSYGYDYFDYWGQGTLVTVSS
VL: QTVVTQEPSFSVSPGGTVTLTCGLSSGSVSTSYYPSWYQQTPGQAPRTLIYSTNTRSSGVPDRFSGSILGNKAALTITGAQADDESDYYCVLYMGSGISYVFGTGTKVTVL
Turning to B10, the ELISA absorbance at 450 nm in assay [8] worked out at 0.19 A450; in assay [9], 0.18 A450; in assay [10], 0.19 A450; in [11], 0.2 A450.
